From patent publication US20240082401A1

What was measured:
[1] = molecular target: BCMA-41BB-CD3-CAR (monospecific BCMA CAR), expressed on T cells; assay: FACS, donor #57 single BCMA CAR-T cells, goat anti-mouse F(ab)2 staining
[2] = molecular target: CS1-BCMA-41BB-CD3 CAR (bispecific CS1-BCMA chimeric antigen receptor), expressed on T cells; assay: FACS of CAR-transduced T cells stained with biotinylated goat anti-mouse F(ab)2 and PE-streptavidin
[3] = molecular target: monospecific CS1 CAR, expressed on T cells; assay: FACS, donor #57 CS1 CAR-T cells; detection reagent not named in the sentence (taken as anti-mouse F(ab)2)
[4] = molecular target: CS1-BCMA-41BB-CD3 CAR (bispecific CS1-BCMA chimeric antigen receptor), expressed on T cells; assay: FACS, donor #890 T cells, goat anti-mouse F(ab)2 staining
[5] = molecular target: CS1-BCMA-41BB-CD3 CAR (bispecific CS1-BCMA chimeric antigen receptor), expressed on T cells; assay: FACS, donor #57 T cells, goat anti-mouse F(ab)2 staining

Sequence of CS1-BCMA-41BB-CD3 CAR (bispecific CS1-BCMA chimeric antigen receptor), expressed on T cells (chain, as listed by the source mutant): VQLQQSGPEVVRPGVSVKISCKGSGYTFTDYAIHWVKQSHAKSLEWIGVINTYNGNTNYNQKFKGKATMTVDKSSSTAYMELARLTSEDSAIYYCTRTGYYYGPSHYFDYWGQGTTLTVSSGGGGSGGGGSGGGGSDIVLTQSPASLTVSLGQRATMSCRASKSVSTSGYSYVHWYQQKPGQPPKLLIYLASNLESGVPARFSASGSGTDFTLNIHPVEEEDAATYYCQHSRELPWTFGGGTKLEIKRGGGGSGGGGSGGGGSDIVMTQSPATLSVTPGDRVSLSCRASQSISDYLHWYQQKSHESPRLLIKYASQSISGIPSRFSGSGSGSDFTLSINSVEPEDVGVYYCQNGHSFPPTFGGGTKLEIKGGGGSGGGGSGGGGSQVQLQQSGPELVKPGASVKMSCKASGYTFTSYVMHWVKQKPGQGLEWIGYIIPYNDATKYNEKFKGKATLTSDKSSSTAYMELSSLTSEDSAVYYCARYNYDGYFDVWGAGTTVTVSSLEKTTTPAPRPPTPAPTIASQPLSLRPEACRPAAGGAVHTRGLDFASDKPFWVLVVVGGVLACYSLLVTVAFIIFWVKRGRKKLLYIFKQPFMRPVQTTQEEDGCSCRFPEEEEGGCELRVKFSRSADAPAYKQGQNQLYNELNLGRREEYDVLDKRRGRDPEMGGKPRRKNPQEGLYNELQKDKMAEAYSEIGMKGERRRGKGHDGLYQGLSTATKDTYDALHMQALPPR

Q: How did the proportion of CAR cells detected [1] turn out when “Biotin-labeled polyclonal goat anti-mouse F(ab)2 antibody (Life Technologies)” was run?
A: 57%

Q: And the percentage of CAR+ cells detected [2]?
A: > 95%

Q: And the percentage of CAR+ cells [3]?
A: 68%

Q: What about the proportion of CAR+ cells detected [4] of the same substance?
A: 81%

Q: And the proportion of CAR cells detected [5]?
A: > 70%
